Laboratory results reported in the Human Domainome abundance scans (Beltran et al. 2025).
± gives the uncertainty stated by the source.

B1: Probable E3 ubiquitin-protein ligase MID2, residues 191 to 235; numbered along this chain, Q9UJV3 (parent)
chain: RGITCLDHENEKVNMYCVSDDQLICALCKLVGRHRDHQVASLNDR

Variants of: B1
Assay: abundance fitness (aPCA) (normalised: wild type 0, dead -1); higher = more abundant; growth selection in yeast, the domain comes from the species named
Settings: Homo sapiens

Row | Variant | abundance fitness
1 | RGITCLDHYNEKVNMYCVSDDQLICALCKLVGRHRDHQVASLNDR | -0.051 ± 0.13
2 | RGITCLDHENEPVNMYCVSDDQLICALCKLVGRHRDHQVASLNDR | 0.124 ± 0.059
3 | RGITCLDHENECVNMYCVSDDQLICALCKLVGRHRDHQVASLNDR | -0.389 ± 0.16
4 | RGITCLDHENEDVNMYCVSDDQLICALCKLVGRHRDHQVASLNDR | -0.012 ± 0.088
5 | RGITCLDHENELVNMYCVSDDQLICALCKLVGRHRDHQVASLNDR | -0.049 ± 0.069
6 | RGITCLDHENERVNMYCVSDDQLICALCKLVGRHRDHQVASLNDR | -0.042 ± 0.049
7 | RGITCLDHENEVVNMYCVSDDQLICALCKLVGRHRDHQVASLNDR | -0.083 ± 0.065
8 | RGITCLDHENEGVNMYCVSDDQLICALCKLVGRHRDHQVASLNDR | -0.102 ± 0.05
9 | RGITCLDHENEEVNMYCVSDDQLICALCKLVGRHRDHQVASLNDR | 0.104 ± 0.065
10 | RGITCLDHENEAVNMYCVSDDQLICALCKLVGRHRDHQVASLNDR | -0.095 ± 0.059
11 | RGITCLDHENEQVNMYCVSDDQLICALCKLVGRHRDHQVASLNDR | -0.103 ± 0.082
12 | RGITCLDHENEIVNMYCVSDDQLICALCKLVGRHRDHQVASLNDR | -0.244 ± 0.15
13 | RGITCLDHENEWVNMYCVSDDQLICALCKLVGRHRDHQVASLNDR | -0.229 ± 0.074
14 | RGITCLDHENESVNMYCVSDDQLICALCKLVGRHRDHQVASLNDR | 0.095 ± 0.068
15 | RGITCLDHENEKVNMYMVSDDQLICALCKLVGRHRDHQVASLNDR | -0.517 ± 0.1
16 | RGITCLDHENEKVNMYLVSDDQLICALCKLVGRHRDHQVASLNDR | -0.775 ± 0.13
17 | RGITCLDHENEKVNMYGVSDDQLICALCKLVGRHRDHQVASLNDR | -0.129 ± 0.058
18 | RGITCLDHENEKVNMYPVSDDQLICALCKLVGRHRDHQVASLNDR | -0.319 ± 0.14
19 | RGITCLDHENEKVNMYSVSDDQLICALCKLVGRHRDHQVASLNDR | -0.157 ± 0.073

Row | Variant | abundance fitness
20 | RGITCLDHENEKVNMYRVSDDQLICALCKLVGRHRDHQVASLNDR | -0.304 ± 0.068
21 | RGITCLDHENEKVNMYNVSDDQLICALCKLVGRHRDHQVASLNDR | -0.212 ± 0.1
22 | RGITCLDHENEKVNMYEVSDDQLICALCKLVGRHRDHQVASLNDR | -0.163 ± 0.12
23 | RGITCLDHENEKVNMYTVSDDQLICALCKLVGRHRDHQVASLNDR | -0.269 ± 0.072
24 | RGITCLDHENEKVNMYQVSDDQLICALCKLVGRHRDHQVASLNDR | -0.369 ± 0.15
25 | RGITCLDHENEKVNMYKVSDDQLICALCKLVGRHRDHQVASLNDR | -0.01 ± 0.35
26 | RGITCLDHENEKVNMKCVSDDQLICALCKLVGRHRDHQVASLNDR | 0.54 ± 0.27
27 | RGITCLDHENEKVNMQCVSDDQLICALCKLVGRHRDHQVASLNDR | 0.236 ± 0.091
28 | RGITCLDHENEKVNMCCVSDDQLICALCKLVGRHRDHQVASLNDR | -0.176 ± 0.14
29 | RGITCLDHENEKVNMACVSDDQLICALCKLVGRHRDHQVASLNDR | 0.077 ± 0.089
30 | RGITCLDHENEKVNMRCVSDDQLICALCKLVGRHRDHQVASLNDR | 0.183 ± 0.05
31 | RGITCLDHENEKVNMVCVSDDQLICALCKLVGRHRDHQVASLNDR | 0.023 ± 0.055
32 | RGITCLDHENEKVNMPCVSDDQLICALCKLVGRHRDHQVASLNDR | -0.065 ± 0.088
33 | RGITCLDHENEKVNMTCVSDDQLICALCKLVGRHRDHQVASLNDR | -0.392 ± 0.08
34 | RGITCLDHENEKVNMWCVSDDQLICALCKLVGRHRDHQVASLNDR | -0.039 ± 0.071
35 | RGITCLDHENEKVNMHCVSDDQLICALCKLVGRHRDHQVASLNDR | -0.114 ± 0.2
36 | RGITCLDHENEKVNMGCVSDDQLICALCKLVGRHRDHQVASLNDR | 0.024 ± 0.055
37 | RGITCLDHENEKVNMDCVSDDQLICALCKLVGRHRDHQVASLNDR | -0.067 ± 0.12
38 | RGITCLDHENEKVNMLCVSDDQLICALCKLVGRHRDHQVASLNDR | -0.127 ± 0.063

Row | Variant | abundance fitness
39 | RGITCLDHENEKVNMMCVSDDQLICALCKLVGRHRDHQVASLNDR | -0.321 ± 0.15
40 | RGITCLDHENEKVNMNCVSDDQLICALCKLVGRHRDHQVASLNDR | -0.251 ± 0.1
41 | RGITCLDHENEKVNMSCVSDDQLICALCKLVGRHRDHQVASLNDR | -0.178 ± 0.073
42 | RGITCLDHENQKVNMYCVSDDQLICALCKLVGRHRDHQVASLNDR | -0.097 ± 0.065
43 | RGITCLDHENRKVNMYCVSDDQLICALCKLVGRHRDHQVASLNDR | -0.171 ± 0.05
44 | RGITCLDHENFKVNMYCVSDDQLICALCKLVGRHRDHQVASLNDR | -0.248 ± 0.15
45 | RGITCLDHENCKVNMYCVSDDQLICALCKLVGRHRDHQVASLNDR | -0.063 ± 0.07
46 | RGITCLDHENYKVNMYCVSDDQLICALCKLVGRHRDHQVASLNDR | 0.129 ± 0.45
47 | RGITCLDHENMKVNMYCVSDDQLICALCKLVGRHRDHQVASLNDR | -0.174 ± 0.098
48 | RGITCLDHENAKVNMYCVSDDQLICALCKLVGRHRDHQVASLNDR | -0.177 ± 0.047
49 | RGITCLDHENTKVNMYCVSDDQLICALCKLVGRHRDHQVASLNDR | -0.223 ± 0.073
50 | RGITCLDHENWKVNMYCVSDDQLICALCKLVGRHRDHQVASLNDR | -0.215 ± 0.052
51 | RGITCLDHENPKVNMYCVSDDQLICALCKLVGRHRDHQVASLNDR | -0.838 ± 0.17
52 | RGITCLDHENGKVNMYCVSDDQLICALCKLVGRHRDHQVASLNDR | -0.245 ± 0.043
53 | RGITCLDHENLKVNMYCVSDDQLICALCKLVGRHRDHQVASLNDR | -0.524 ± 0.074
54 | RGITCLDHENKKVNMYCVSDDQLICALCKLVGRHRDHQVASLNDR | -0.33 ± 0.14
55 | RGITCLDHENSKVNMYCVSDDQLICALCKLVGRHRDHQVASLNDR | -0.236 ± 0.059
56 | RGITCLDHENIKVNMYCVSDDQLICALCKLVGRHRDHQVASLNDR | -0.334 ± 0.081
57 | RGITCLDHENVKVNMYCVSDDQLICALCKLVGRHRDHQVASLNDR | -0.519 ± 0.054
